Experimental data: PMC6071512

Target: His6-RumM (ruminococcin-A lanthionine synthetase RumM) (Ruminococcus gnavus E1) (UniProt P83674)

His6-GFP-TEV-preRumA* (GFP fusion of the precursor peptide preRumA with Gly-1 replaced by Arg), co-expressed with RumM (from UniProt P83674 24-47)
fraction of His6-GFP-TEV-preRumA* complexed with His6-RumM that TEV protease digested (the free construct was completely digested), SDS-PAGE: 50%
